Reference: patent publication US20180296632A1 (DIACCURATE, published 2018)
[ ]: non-standard residue; d: D form. 2Nal = N[C@@H](Cc1ccc2ccccc2c1)C(=O)O

Target: Recombinant PLA2GIB enzyme (sPLA2GIB produced in E. coli) (UniProt P04054 23-148)
Experiment: cell-based or functional assay

Recombinant PLA2GIB enzyme (sPLA2GIB produced in E. coli), sequence (P04054 23-148 limits assumed): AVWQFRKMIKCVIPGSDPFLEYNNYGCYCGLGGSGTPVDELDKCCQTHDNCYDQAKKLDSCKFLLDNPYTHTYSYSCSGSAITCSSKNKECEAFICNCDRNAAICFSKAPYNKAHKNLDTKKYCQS

cyclo([2Nal]LS[2Nal]R) [Peptide I (cyclic(2-NaphthylAla-Leu-Ser-2-NaphthylAla-Arg))]
IC50 of inhibition of PLA2GIB activity in the bioassay (inhibition of IL-7-induced nuclear translocation of phospho STAT5 in CD4 T cells, STED microscopy): ~4.9 µM
